Results from publication PMC8674365, “PP2A phosphatase inhibition is anti-fibrotic through Ser77 phosphorylation-mediated ARNT/ARNT homodimer formation” (Scientific Reports, 2021).

B1: Endogenous ARNT of mouse tubular epithelial cells (MCT) (natural protein)
chain: not shown
notes: Aryl hydrocarbon receptor nuclear translocator (ARNT), endogenous in the murine proximal tubular epithelial cell line MCT; source: endogenous, MCT cell extract, immunoprecipitated with ARNT antibody
B2: Endogenous ARNT of mouse kidney (UUO-challenged C57BL/6 mice) (natural protein)
chain: not shown
notes: Aryl hydrocarbon receptor nuclear translocator (ARNT), endogenous in kidney tissue of C57BL/6 mice; source: endogenous, total kidney lysate of mice, immunoprecipitated with ARNT antibody

How the values were obtained:
[1] = target: the molecule itself; test: immunoprecipitation and MALDI-TOF mass spectrometry; endogenous ARNT pulled down from extracts of LB100-treated MCT cells with ARNT antibody, eluted with 0.3% TFA, sinapinic acid matrix, linear positive mode
[2] = target: the molecule itself; test: native MS; liquid native MALDI mass spectrometry of endogenous ARNT pulled down from total kidney lysates of LB100-treated UUO mice; eluted in 0.3% TFA, mixed with ammonium acetate buffer (100 mM, pH 9), glycerol

Row | Protein | stoichiometry N [1] | stoichiometry N [2]
1 | B1 | 2 | –
2 | B2 | – | 2
